In patent US20090298167A1 (Pfizer, published 2009):
Changes are numbered by the printed parent chain. In names and notes the source's numbering stands.

T1: human IL-2Rβ (human, UniProt P14784 27-239)
T1 construct: Bought
T1 sequence (looked up): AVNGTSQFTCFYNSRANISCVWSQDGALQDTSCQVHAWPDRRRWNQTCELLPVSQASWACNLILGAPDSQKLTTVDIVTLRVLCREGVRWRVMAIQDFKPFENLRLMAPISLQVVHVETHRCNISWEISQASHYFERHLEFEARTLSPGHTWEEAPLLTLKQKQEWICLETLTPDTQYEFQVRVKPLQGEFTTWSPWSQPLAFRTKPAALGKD

T2: human gamma common chain expressed on CHO cells (human, UniProt P31785 23-369)
T2 construct: whole, on cells; Control protein; also called human IL-2R-γ common subunit; human gamma (γ) common chain
T2 sequence (looked up): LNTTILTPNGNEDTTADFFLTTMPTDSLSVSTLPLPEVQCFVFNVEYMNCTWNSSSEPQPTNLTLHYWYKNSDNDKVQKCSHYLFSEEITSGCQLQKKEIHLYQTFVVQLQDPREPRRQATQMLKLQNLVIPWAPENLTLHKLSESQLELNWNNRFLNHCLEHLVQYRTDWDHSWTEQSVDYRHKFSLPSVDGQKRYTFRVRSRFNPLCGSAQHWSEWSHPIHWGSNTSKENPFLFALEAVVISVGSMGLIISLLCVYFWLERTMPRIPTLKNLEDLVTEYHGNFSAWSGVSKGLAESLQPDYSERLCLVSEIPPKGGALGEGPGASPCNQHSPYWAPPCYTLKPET

B1: AbP (antibody, human IgG1, V domains shown)
VH: QVQLQESGPGLVKPSETLSLTCAVSGYSISSGYYWGWIRQPPGKGLEWIGSISHTGNTYYNPPLKSRVTISVDTSKNQFSLKLSSVTAADTAVYYCARGGGISRPEYWGQGTLVTVSS
VL: SSELTQDPAVSVALGQTVRITCQGDSLRTYYASWYQQKPGQAPVLVIYGKHKRPSGIPDRFSGSSSGNTASLTITGAQAEDEADYYCVSRSAKGNPHVLFGGGTQLTVL
notes: Human IgG1 triple-mutant (L234A, L235A, G237A); Framework limits derived; also called VHP/VL20; VHPTM/VL20
B2: parental 18A5 antibody (antibody, V domains shown)
VH: B1 VH with P14T, Q110K
VL: SSELTQDPPVSVALGQTVTLTCQGDSLRTYYASWYQQKSGQAPILLLYGKHKRPSGIPDRFSGSTSGDTASLTITGAQAEDEADYYCNSRDSSGNPHVLFGGGTQLTVL

What was measured:
human IL-13-His/FLAG = target: T3, human IL-13-His/FLAG (human, UniProt P35225 35-146, limits assumed); experiment: BIACORE: antibody captured on anti-human IgG, 50 nM analyte injected
T3 construct: Unrelated His/FLAG-tagged control; also called human IL-13-H/F
Method: (§1) The specificity of binding of a subset of transiently expressed anti-IL-21R binding proteins (here antibodies) was tested on a BIACORE™ 2000 surface plasmon resonance instrument. Anti-human-IgG, anti-murine immunoglobulin antibodies, and murine IL-21R-H/F were immobilized onto a research-grade carboxymethyl-dextran chip (CM5) using standard amine coupling. The sensor chip surface was activated with EDC/NHS for 7 min at a flow rate of 20 μl/min. The first flow cell was used as reference surface to correct for bulk refractive index, matrix effects, and nonspecific binding. […] Remaining activated groups were blocked with 1.0 M ethanolamine (pH 8.0). The molecular weights of the anti-human IgG and the anti-murine IgG were both 150 kD, and the molecular weight of the IL-21R monomer was 27 kD.
(§2) Conditioned media containing anti-IL-21R antibodies and antibody controls (murine anti-human IL-2Rβ and murine anti-human IL-4R(R&D Systems, Minneapolis, Minn.); human anti-human IL-13 (Wyeth, Cambridge, Mass.)) were diluted in HBS/EP buffer supplemented with 0.2% bovine serum and injected onto all four flow cells of the BIACORE™ chip, capturing 500-700 (RU) of antibody on the species-appropriate capture antibody. Following a 5 sec washing period, 50 nM solutions of a positive control protein (murine IL-21R-H/F), two human proteins related to IL-21R (human IL-2Rβ and human sIL-4R(R&D Systems)), or an unrelated His/FLAG-tagged protein (human IL-13-H/F), were injected over the captured antibodies on the chip. The association and dissociation phases were monitored for 120 and 180 sec, respectively, followed by two 5 μl injections of glycine (pH 1.5) to regenerate a fully active capturing surface. All binding experiments were done at 25° C. in HBS/EP buffer. Blank and buffer effects were subtracted for each sensorgram using double referencing.

human IL-2Rβ = target: T1, human IL-2Rβ; experiment: as above
Method: as §1, §2

human soluble IL-4R = target: T4, human soluble IL-4R (human, UniProt P24394 26-231, limits assumed); experiment: as above
T4 construct: soluble; also called human sIL-4R
Method: as §1, §2

[1] = target: T5, human IL-21R expressed on cells (human, UniProt Q9HBE5 20-538); experiment: cell-based or functional assay
[2] = target: T2, human gamma common chain expressed on …; experiment: cell ELISA on transfected CHO cells, 13 nM IgG
Method: (§3) A subset of binding proteins was tested for binding to rat, cynomolgus monkey, human IL-21R, or human IL-2R-γ common subunit expressed transiently on the surfaces of CHO-PA-Dukx cells. Cells were transfected 48 hr prior to the assay. On the day of the assay, cells were washed gently 5× in PBS containing 0.9 mM CaCl₂ and 0.45 mM MgCl₂ (PBS/CaMg) on an automated plate washer (Titertek, Huntsville, Ala.), and blocked for 1 hr at RT in PBS/CaMg/5% nonfat dry milk. Conditioned media from transiently expressed anti-IL-21R IgGs were serially diluted in blocking buffer and added to the cells in the blocked plates for 1 hr at RT. Cells were washed 5× with PBS/CaMg and then incubated with horseradish peroxidase-conjugated anti-human IgG for 1 hr at RT. Cells were then washed 10× in PBS/CaMg and all of the wash buffer was removed. Cells were incubated with 100 μl TMB until the color reaction reached saturation, stopped with 100 μl of 0.18 M H₂SO₄, and read at A450 on a Perkin Elmer ENVISION™ plate reader.

[3] = target: T6, rat IL-21R expressed on cells (rat); experiment: cell ELISA on transfected CHO cells, 13 nM IgG
T6 construct: whole, on cells; Transiently transfected CHO-PA-Dukx cells
Method: as §3

[4] = target: T5, human IL-21R expressed on cells; experiment: cell ELISA on transfected CHO cells, 13 nM IgG
Method: as §3

[5] = target: T7, cynomolgus monkey IL-21R expressed on CHO cells (cynomolgus monkey); experiment: cell ELISA on transfected CHO cells, 13 nM IgG
T7 construct: whole, on cells
Method: as §3

[6] = target: T5, human IL-21R expressed on cells; experiment: cell-based or functional assay; remark: listed apart in the source
[7] = target: T8, murine IL-21R expressed on cells (murine, UniProt Q9JHX3 20-529); experiment: cell-based or functional assay
[8] = target: T8, murine IL-21R expressed on cells; experiment: cell-based or functional assay; remark: listed apart in the source
[9] = target: T5, human IL-21R expressed on cells; experiment: cell-based or functional assay; remark: listed apart in the source
[10] = target: T5, human IL-21R expressed on cells; experiment: cell-based or functional assay; remark: listed apart in the source
[11] = target: T8, murine IL-21R expressed on cells; experiment: cell-based or functional assay; remark: listed apart in the source

T5 sequence (Q9HBE5 20-538 limits assumed): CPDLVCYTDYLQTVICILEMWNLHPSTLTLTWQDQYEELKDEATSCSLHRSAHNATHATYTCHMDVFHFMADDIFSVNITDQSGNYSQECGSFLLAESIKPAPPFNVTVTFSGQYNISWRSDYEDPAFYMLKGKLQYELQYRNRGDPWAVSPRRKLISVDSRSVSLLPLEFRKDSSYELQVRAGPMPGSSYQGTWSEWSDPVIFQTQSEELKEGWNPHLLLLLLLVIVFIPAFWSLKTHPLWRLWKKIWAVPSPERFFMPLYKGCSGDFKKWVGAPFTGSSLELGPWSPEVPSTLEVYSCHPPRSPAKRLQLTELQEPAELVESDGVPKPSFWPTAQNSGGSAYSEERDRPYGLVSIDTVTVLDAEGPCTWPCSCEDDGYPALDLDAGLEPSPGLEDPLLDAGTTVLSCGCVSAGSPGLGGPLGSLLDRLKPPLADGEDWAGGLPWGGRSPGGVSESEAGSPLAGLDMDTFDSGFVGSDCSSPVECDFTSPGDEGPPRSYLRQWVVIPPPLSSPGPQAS
T8 sequence (Q9JHX3 20-529 limits assumed): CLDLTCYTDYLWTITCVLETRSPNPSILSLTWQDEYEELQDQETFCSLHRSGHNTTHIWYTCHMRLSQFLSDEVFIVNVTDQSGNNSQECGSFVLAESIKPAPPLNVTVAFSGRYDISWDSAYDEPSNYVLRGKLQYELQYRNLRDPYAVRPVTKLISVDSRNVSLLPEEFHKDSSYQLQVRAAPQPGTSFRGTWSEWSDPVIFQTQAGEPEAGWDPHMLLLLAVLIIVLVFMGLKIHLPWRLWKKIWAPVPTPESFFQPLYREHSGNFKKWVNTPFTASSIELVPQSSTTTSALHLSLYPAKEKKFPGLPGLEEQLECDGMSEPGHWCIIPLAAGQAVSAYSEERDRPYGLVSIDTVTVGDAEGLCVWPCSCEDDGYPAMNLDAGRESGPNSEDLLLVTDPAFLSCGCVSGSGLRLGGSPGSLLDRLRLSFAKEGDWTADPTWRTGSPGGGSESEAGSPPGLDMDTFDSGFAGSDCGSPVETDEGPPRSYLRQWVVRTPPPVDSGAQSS
T3 sequence (P35225 35-146 limits assumed): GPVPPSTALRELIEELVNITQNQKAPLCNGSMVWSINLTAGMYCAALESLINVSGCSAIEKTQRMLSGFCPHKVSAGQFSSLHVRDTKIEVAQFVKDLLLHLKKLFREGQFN
T4 sequence (P24394 26-231 limits assumed): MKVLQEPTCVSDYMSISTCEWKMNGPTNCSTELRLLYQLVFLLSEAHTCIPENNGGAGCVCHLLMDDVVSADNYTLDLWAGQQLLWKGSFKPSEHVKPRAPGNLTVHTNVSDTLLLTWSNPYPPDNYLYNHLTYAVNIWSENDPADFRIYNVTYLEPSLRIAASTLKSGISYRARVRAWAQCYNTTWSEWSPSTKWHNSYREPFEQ

| Binder | binding result (human IL-13-His/FLAG) | binding result (human IL-2Rβ) | binding result (human soluble IL-4R) | Neutralization of T cell Proliferation IC50 (nM), human primary CD4+ T cells [1] [nM] | A450 at 13 nM Ab in cell ELISA [2] [A450] | A450 at 13 nM Ab in cell ELISA [3] [A450] | A450 at 13 nM Ab in cell ELISA [4] [A450] | A450 at 13 nM Ab in cell ELISA [5] [A450] | Human IL-21R-BaF3 Proliferation IC50 [6] [nM] | Human IL-21R-TF1 Proliferation IC50 [6] [nM] | Murine IL-21R-BaF3 Proliferation IC50 [7] [nM] | Neutralization of T cell Proliferation IC50 (nM), murine primary CD8+ T cells [8] [nM] | Neutralization of B cell proliferation IC50 [9] [nM] | Human IL-21R-BaF3 Neutralization IC50 [10] [nM] | Human IL-21R-TF1 Neutralization IC50 [10] [nM] | Murine IL-21R-BaF3 Neutralization IC50 [11] [nM] |
| --- | --- | --- | --- | --- | --- | --- | --- | --- | --- | --- | --- | --- | --- | --- | --- | --- |
| B1 | no binding (tested: 50 nM) | no binding (tested: 50 nM) | no binding (tested: 50 nM) | 0.02 | 0.112 | 1.03 | 1.31 | 1.31 | 0.75 | 3.48 | 0.03 |  |  |  |  |  |
| B2 |  |  |  | 1.42 |  |  |  |  |  |  |  | > 85 | 1.86 | 1.71 | 14 | 177 |
